10 molecules from patent publication US20180215829A1 (CRESCENDO BIOLOGICS, published 2018) can be followed below.

Substitutions are numbered along the chain they refer to. Where two headings read alike, the source gives them in different places.

The target in one assay is T1, IL-17RB (UniProt Q9NRM6 18-289, limits assumed).
T1 sequence (looked up): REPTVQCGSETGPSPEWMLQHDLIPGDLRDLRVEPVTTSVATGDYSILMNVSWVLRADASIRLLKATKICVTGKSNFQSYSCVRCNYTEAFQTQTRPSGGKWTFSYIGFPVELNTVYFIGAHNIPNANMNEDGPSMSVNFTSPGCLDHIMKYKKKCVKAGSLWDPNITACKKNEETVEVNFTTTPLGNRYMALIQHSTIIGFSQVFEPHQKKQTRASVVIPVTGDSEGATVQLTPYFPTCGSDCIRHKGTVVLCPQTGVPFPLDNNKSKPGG
Kind of assay: specificity ELISA, antigen coated, anti-His-HRP detection. As for the experimental part:
(§1) The binding ELISA for crude or purified VH was similar to the serum ELISA and phage ELISA, previously described, mostly differing in the final detection steps. Briefly, antigen was immobilised on maxisorb plates (Nunc 443404) by adding 50 ul volumes at 0.1-1 ug/ml in PBS and incubating at 4° C. overnight. Following coating, the antigen solution was aspirated and the plates were washed using PBS (prepared from PBS tablets, Oxoid cat no. BR0014G) supplemented with 0.05% Tween® 20 (sigma P1379), followed by washes with PBS without added Tween®. To block non-specific protein interactions, a solution of 3% skimmed milk powder (Marvel) in PBS was added to the wells and the plate was incubated for at least one hour at room temperature. Dilutions of periplasmic extract or purified VH in 3% Marvel/PBS were prepared in polypropylene tubes or plates and incubated for at least one hour at room temperature prior to transfer to the blocked ELISA plate where a further incubation of at least one hour took place. Unbound protein was then washed away using repetitive washes with PBS/Tween® followed by PBS. A solution of HRP-conjugated anti-His Ab (Miltenyi Biotec, 130-092-785), prepared at 1:1000 dilution in PBS/3% Marvel was then added to each well and a further incubation at room temperature for at least one hour took place. Unbound detection antibody was removed by repeated washing using PBS/Tween® and PBS. The ELISA was then developed using TMB substrate (Sigma cat. no. T0440) and the reaction was stopped after 10 minutes by the addition of 0.5M H₂SO₄ solution (Sigma cat. no. 320501). Absorbances were determined by reading at 450 nm.
(In general: ELISA stands for enzyme-linked immunosorbent assay.)

Another assay deals with T2, IL-17RD (UniProt Q8NFM7 17-299, limits assumed).
T2 sequence (looked up): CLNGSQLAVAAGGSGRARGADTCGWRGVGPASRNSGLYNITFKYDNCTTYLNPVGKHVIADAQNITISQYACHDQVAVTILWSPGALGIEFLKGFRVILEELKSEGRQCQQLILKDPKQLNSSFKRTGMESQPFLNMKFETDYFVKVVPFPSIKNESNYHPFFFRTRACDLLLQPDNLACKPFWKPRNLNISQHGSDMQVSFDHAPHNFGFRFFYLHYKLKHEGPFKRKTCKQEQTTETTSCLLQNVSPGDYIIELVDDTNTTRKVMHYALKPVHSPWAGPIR
Described as above. As for the experimental part:
as §1

For assay [1], the target named is T3, human IL-17RA on HT1080 cells (human, UniProt Q96F46 33-866).
T3 sequence: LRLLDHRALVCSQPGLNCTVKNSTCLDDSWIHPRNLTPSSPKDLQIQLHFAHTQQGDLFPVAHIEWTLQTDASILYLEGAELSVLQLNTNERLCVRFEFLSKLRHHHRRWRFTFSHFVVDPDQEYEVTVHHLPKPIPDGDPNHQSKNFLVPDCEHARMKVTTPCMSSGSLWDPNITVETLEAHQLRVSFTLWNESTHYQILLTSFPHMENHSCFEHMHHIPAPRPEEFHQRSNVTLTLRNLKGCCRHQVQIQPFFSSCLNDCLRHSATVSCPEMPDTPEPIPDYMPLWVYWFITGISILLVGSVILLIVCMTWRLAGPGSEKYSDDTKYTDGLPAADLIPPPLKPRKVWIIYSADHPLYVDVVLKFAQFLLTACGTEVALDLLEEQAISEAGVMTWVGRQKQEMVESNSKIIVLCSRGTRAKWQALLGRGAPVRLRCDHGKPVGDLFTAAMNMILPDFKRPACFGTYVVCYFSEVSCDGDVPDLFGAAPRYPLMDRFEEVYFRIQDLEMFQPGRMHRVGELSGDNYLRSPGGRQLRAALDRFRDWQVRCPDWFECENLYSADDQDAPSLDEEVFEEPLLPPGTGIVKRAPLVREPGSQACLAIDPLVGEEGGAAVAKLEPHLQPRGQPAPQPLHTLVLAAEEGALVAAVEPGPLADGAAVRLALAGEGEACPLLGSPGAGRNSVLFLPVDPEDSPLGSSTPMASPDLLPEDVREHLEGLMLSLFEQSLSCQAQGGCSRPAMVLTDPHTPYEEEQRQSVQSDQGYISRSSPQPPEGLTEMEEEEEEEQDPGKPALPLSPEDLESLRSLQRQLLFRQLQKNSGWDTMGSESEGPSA
As to the kind of experiment: cell-based or functional assay.

For assay [2], the target named is T4, recombinant human IL-17RA Fc fusion protein (R&D Systems 177-IR-100) (human, UniProt Q96F46 33-320).
T4 construct: Bought protein; not shown: Fc domain of human IgG1
T4 sequence: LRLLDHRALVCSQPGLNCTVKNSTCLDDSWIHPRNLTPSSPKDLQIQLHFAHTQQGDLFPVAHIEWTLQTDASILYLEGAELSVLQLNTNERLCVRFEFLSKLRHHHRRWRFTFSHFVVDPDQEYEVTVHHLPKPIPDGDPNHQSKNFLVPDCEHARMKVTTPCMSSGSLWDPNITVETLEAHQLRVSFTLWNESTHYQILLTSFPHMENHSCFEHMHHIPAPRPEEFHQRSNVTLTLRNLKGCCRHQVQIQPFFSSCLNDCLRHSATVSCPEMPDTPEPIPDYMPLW
Kind of assay: BIAcore T200 single-cycle kinetics, IL-17RA-Fc captured on protein G chip, VH as analyte. The method, then:
(§2) Binding kinetics of anti-IL-17RA VH antibodies were measured on a BIAcore® T200 instrument. For IL-17RA, first a protein G chip was prepared by diluting protein G to 20 ug/ml in acetate buffer, pH 4 (BIAcore®, cat# BR-100-49) and then coupled 1200 RU to a CM5 Series S chip using amine coupling chemistry. This surface was then used to capture IL-17RA Fc fusion protein from solution: IL-17RA at 10 ug/ml in HBS injected for 10 seconds at 30 ul/min flow rate would capture approximately 100-150 RU of IL-17RA onto the protein G surface.
(§3) Binding kinetics of anti-IL-17RA VH antibodies were determined by single-cycle kinetics. VH antibodies were prepared in dilution series (typically 1:3 dilution series starting with 100 nM VH at the highest concentration), and then injected over the antigen coated surfaces and also a blank surface, starting with the lowest concentration of VH and then working progressively up to the highest concentration. VH binding kinetics were then determined from the (blank subtracted) sensorgram traces using 1:1 binding models and BIAevaluation software.

Assay [3] addresses T4, recombinant human IL-17RA Fc fusion …. As to the kind of experiment: receptor/ligand biochemical inhibition ELISA: VH competes with 1 nM IL-17A for coated IL-17RA-Fc. As for the experimental part:
(§4) VH, both purified and crude periplasmic extracts, were also tested for their ability to inhibit the interaction of IL-17A with recombinant IL-17RA-Fc. […] Following washing of excess coating antigen, as described above, the wells of the plate were incubated with 3% Marvel/PBS to block non-specific protein interactions. VH preparations, crude periplasmic extracts or purified VH, or suitable controls, were prepared with 1 nM recombinant IL-17A (Peprotech, cat# AF-200-17) in 3% skimmed milk powder/PBS solution in polypropylene plates or tubes. The mixture was then transferred to the assay plate and incubated for 1 hour at room temperature. Excess protein was removed by washing and bound IL-17A was detected by incubation with biotinylated anti-IL-17A Mab (R & D Systems, cat BAF317) followed by the addition of neutravidin-HRP (Pierce, cat#31030) and TMB substrate (Sigma, cat# T0440). The TMB reaction was stopped by addition of 0.5M H₂SO₄ and absorbances were measured at 450 nm in a plate reader.

Assay [4] has the same target. As to the kind of experiment: IL-17RA ligand inhibition ELISA (FIG. 10B): VH competes with IL-17A for coated IL-17RA-Fc. As for the experimental part:
as §4

Assay [5] deals with T3, human IL-17RA on HT1080 cells. As to the kind of experiment: cell-based or functional assay. This is another data set of the same source.
The target in assay [6] is T4, recombinant human IL-17RA Fc fusion …. As to the kind of experiment: BIAcore T200 single-cycle kinetics, IL-17RA-Fc captured on protein G chip, VH as analyte. The method, then: as §2, §3
The source holds these as a separate data set. For orientation: Surface plasmon resonance follows binding to a sensor surface in real time, without labels.

For assay [7] the target is unchanged. Kind of assay: receptor/ligand biochemical inhibition ELISA: VH competes with 1 nM IL-17A for coated IL-17RA-Fc. The method, then:
as §4
This is another data set of the same source.

For assay [8], the target named is T3, human IL-17RA on HT1080 cells. As to the kind of experiment: cell-based or functional assay. The source holds these as a separate data set.

B1: VH 62A4 (VHH)
VHH: QVQLVESGGGLVQPGRSLTLSCTASGFTFHDYAMHWVRQPPGGGLEWVAGVSWNGNNVGYADSVKGRFTISRDNAKKSLYLQMNSLRSEDTALYYCAKGGMGSGSHPDSFSTWGQGTMVTVSS
notes: VH single domain
Regarding B1, the binding result in the assay with IL-17RB and in the assay with IL-17RD was “no binding” throughout.

B2: VH clone 5.1 (VHH)
VHH: EVQLVESGGGLVKPGGSLRLSCEASGFTFSDFDMSWIRQAPGKGLEWVAYISSSDSTIYYRDSVKGRFTISRDNAKNSLYLQMNSLRAEDTAVYYCSRNGARYNWNYGDFQHWGQGTLVTVSS
notes: Human VH single domain antibody, no light chain; Parent clone of family 5
For orientation: Kd means a measure of binding affinity in units of concentration. As usually defined, the IC50 is the point on the concentration scale where inhibition reaches its midpoint. For the molecule B2, the “Cell assay IC50” value in assay [1] was 73 nM. Besides, the Kd in assay [2] amounted to 41 nM. In addition, the IC50 in [3] stood at 80 nM.

B3: VH clone 4.1 (VHH)
VHH: QVQLVQSGAEVKKPGASVKVSCKASGYPFTNYDISWIRQATGQSLEWMGWMNPDSGNTGYAQKFQGRVTMTRNTSISTAYMELSGLRSEDTAVYFCARGGYNAWRTDYWGQGTLVTVSS
notes: Human VH single domain antibody, no light chain; Parent clone of family 4
For B3, the “Cell assay IC50” value in assay [1] worked out at 282 nM. The Kd in assay [2] stood at 4.5 nM.

B4: VH clone 4.55 (VHH)
VHH: QVQLQQSGAEVKKPGASVKVSCKASGYTFTSYDISWVRQATGQSLEYMGWMNPNSGNTGYAQKFQGRVTMTRNTSISTAYMELSSLRSEDTAVYYCARGGITEWRRDYWGQGTLVTVSS
notes: Human VH single domain antibody, no light chain; Family 4
In the case of B4, in assay [4], the IC50 was found to be 6930 nM.

B5: VH clone 2.3 (VHH)
VHH: QVQLVQSGAEVKKPGASVKVSCKASGYPFTSYDINWVRQATGRSLEWMGWMNPTSGDTVYAQKFQDRVTMTRNTSISTAYMELSSLRSEDTAVYFCARGRRDNWKNNYWGQGTLVTVSS
notes: Human VH single domain antibody, no light chain; Optimised variant of clone 2.1
The koff is the first-order rate constant of dissociation. Usually kon stands for the second-order rate constant of association. As for B5, the “Cell assay IC50” value in assay [5] was determined as 118 nM. Further, in assay [6], the Kd turned out to be 2.5 nM, the koff was found to be 0.00137 s⁻¹ and the kon was found to be 555000 M⁻¹ s⁻¹. In addition, the IC50 in assay [7] amounted to 1.3 nM.

B6: VH clone 3.1 (VHH)
VHH: EVQLVESGGGLVQPGGSLRLSCAASGFPFSTYWMRWLRQAPGKGLEWVANINQDGSEKYYVDSVKGRFTISRDNAKSSLFLQMNSLRAEDTAVYYCARGWESGWFEPWGQGTLVTVSS
notes: Human VH single domain antibody, no light chain; Parent clone of family 3; also called VH 3.1
As to B6, the Kd in assay [2] is 9.6 nM. Besides, the IC50 in assay [3] is 11 nM.

B7: VH clone 1.2 (VHH)
VHH: EVQLVESGGGLVQPGRSLRLSCAASGFTFDDYAMHWVRQAPGKGLEWVSGISWNSGRMDYADSVKGRFTISRDNAKNSLYLQMNSLRAEDTALYYCAKEKGLGYCRGGSCSYFDYRGQGTLVTVSS
notes: Human VH single domain antibody, no light chain; Family 1; also called VH 1.2
Turning to B7, in [8], the “IC50 (nM), cell-based assay” value amounted to 141 nM. Further, the binding result with IL-17RB and with IL-17RD was “no binding” throughout.

B8: VH clone 1.1 (VHH)
VHH: B7 VHH with E1Q, N77K, L93M, Y104F
notes: Human VH single domain antibody, no light chain; Parent clone of family 1; also called VH 1.1
On to B8, for which the “IC50 (nM), cell-based assay” value in assay [8] is 39 nM. The “Cell assay IC50” value in assay [1] was 4.7 nM. Further, the binding result with IL-17RB and with IL-17RD was “no binding” in each case. Besides, the Kd in assay [2] came out at 0.063 nM.

B9: VH clone 6.1 (VHH)
VHH: EVQLVESGGGLVKPGGSLRLSCAASGFTFSDDYMSWLRQAPGKGLEWVSYISSSGSTIYYADSVKGRFTISRDNAKNSLYLQMNSLRAEDSAVYYCARKDITNIAVGSLGYWGQGTLVTVSS
notes: Human VH single domain antibody, no light chain; Parent clone of family 6
Take B9: the “Cell assay IC50” value in assay [1] amounted to 233 nM. Also, in [2], the Kd turned out to be 31 nM.

B10: VH clone 7.1 (VHH)
VHH: EVQLVESGGGLVQPGGSLRLSCAASGFTFSNYWMSWVRQARGKGLEWVANIRPDGSERYYVDSVKGRFTISRDNAKNSLYLQMSSLRAEDTAVYYCARSRDWGSRAFDIWGQGTMVTVSS
notes: Human VH single domain antibody, no light chain; Parent clone of family 7
As to B10, the “Cell assay IC50” value in assay [1] was found to be 1840 nM. For the same molecule, the Kd in [2] stood at 370 nM.
